Here are results for 56 substances from patent US11230581B2, “Peptides and combination of peptides for use in immunotherapy against ovarian cancer and other cancers” (Immatics Biotechnologies GmbH, priority 2015, dated 2022).

This assay addresses HLA-A*02:01 (Homo sapiens, UniProt P04439, D140Y/D185E/D98H/E176V/E277Q/G131W/G231S/I119V/I121R/I166T/I218V/L300P/L318F/N151K/N90K/P208A/P217A/Q86G/Q94H/R138H/R169H/T345S). The experiment in a line: MHC binding assay (UV-ligand exchange, β2m ELISA, peptide exchange yield). Particulars: binding of HLA-class I restricted peptides to HLA-A*02:01, UV-ligand exchange. An excerpt:
Candidate peptides for T cell based therapies according to the present invention were further tested for their MHC binding capacity (affinity). The individual peptide-MHC complexes were produced by UV-ligand exchange, where a UV-sensitive peptide is cleaved upon UV-irradiation, and exchanged with the peptide of interest as analyzed. Only peptide candidates that can effectively bind and stabilize the peptide-receptive MHC molecules prevent dissociation of the MHC complexes. To determine the yield of the exchange reaction, an ELISA was performed based on the detection of the light chain (β2m) of stabilized MHC complexes. The assay was performed as generally described in Rodenko et al. (Rodenko et al., 2006).
96 well MAXISorp plates (NUNC) were coated over night with 2 ug/ml streptavidin in PBS at room temperature, washed 4× and blocked for 1h at 37° C. in 2% BSA containing blocking buffer. […] Peptide-MHC monomers of the UV-exchange reaction were diluted 100 fold in blocking buffer. Samples were incubated for 1 h at 37° C., washed four times, incubated with 2 ug/ml HRP conjugated anti-β2m for 1h at 37° C., washed again and detected with TMB solution that is stopped with […]. Absorption was measured at 450 nm. Candidate peptides that show a high exchange yield (preferably higher than 50%, most preferred higher than 75%) are generally preferred for a generation and production of antibodies or fragments thereof, and/or T cell receptors or fragments thereof, as they show sufficient avidity to the MHC molecules and prevent dissociation of the MHC complexes.
On the technique in general: ELISA stands for enzyme-linked immunosorbent assay.
“60 (SLTIDGIYYV; listed as Homo sapiens) [compound 60]”: the “Peptide exchange (MHC class I binding score, peptide exchange yield)” value (shortened to “Peptide exchange”) was ““++++” (≥75% = ++++)”.

For “61 (FLQGYQLHL; listed as Homo sapiens) [compound 61]”, the “Peptide exchange” value was ““++++” (≥75% = ++++)”.

For the substance “62 (VLLDVSAGQLLM; listed as Homo sapiens) [compound 62]”, the “Peptide exchange” value is ““++++” (≥75% = ++++)”.

With “63 (YLLPSGGSVTL; listed as Homo sapiens) [compound 63]”, the “Peptide exchange” value is on record as ““++” (≥20% = ++)”.

Regarding “64 (YAAPGGLIGV; listed as Homo sapiens) [compound 64]”, the “Peptide exchange” value is recorded as ““++” (≥20% = ++)”.

In the case of “66 (FLDENIGGVAV; listed as Homo sapiens) [compound 66]”, the “Peptide exchange” value is ““+++” (≥50 = +++)”.

For the substance “67 (TLLAEALVTV; listed as Homo sapiens) [compound 67]”, the “Peptide exchange” value was ““+++” (≥50 = +++)”.

For the substance “68 (SLMELPRGLFL; listed as Homo sapiens) [compound 68]”, the “Peptide exchange” value was ““++++” (≥75% = ++++)”.

Turning to “69 (FQLDPSSGVLVTV; listed as Homo sapiens) [compound 69]”, the “Peptide exchange” value is reported as ““+++” (≥50 = +++)”.

On to “70 (GLLDYPVGV; listed as Homo sapiens) [compound 70]”, for which the “Peptide exchange” value is ““+++” (≥50 = +++)”.

Consider “71 (GILARIASV; listed as Homo sapiens) [compound 71]”, for which the “Peptide exchange” value is ““+++” (≥50 = +++)”.

On to “72 (SLLELDGINL; listed as Homo sapiens) [compound 72]”, for which the “Peptide exchange” value is listed as ““+++” (≥50 = +++)”.

Turning to “73 (NIFDLQIYV; listed as Homo sapiens) [compound 73]”, the “Peptide exchange” value is listed as ““+++” (≥50 = +++)”.

With “74 (ALLDPEVLSIFV; listed as Homo sapiens) [compound 74]”, the “Peptide exchange” value is on record as ““+++” (≥50 = +++)”.

As for “75 (GLLEVMVNL; listed as Homo sapiens) [compound 75]”, the “Peptide exchange” value is ““+++” (≥50 = +++)”.

“76 (ILIDSIYKV; listed as Homo sapiens) [compound 76]”: the “Peptide exchange” value was ““+++” (≥50 = +++)”.

For “77 (ILVEADGAWVV; listed as Homo sapiens) [compound 77]”, the “Peptide exchange” value was ““++++” (≥75% = ++++)”.

On to “78 (SLFSSLEPQIQPV; listed as Homo sapiens) [compound 78]”, for which the “Peptide exchange” value is recorded as ““+++” (≥50 = +++)”.

Take “79 (SLFIGEKAVLL; listed as Homo sapiens) [compound 79]”: the “Peptide exchange” value is ““+++” (≥50 = +++)”.

On to “80 (FLYDNLVESL; listed as Homo sapiens) [compound 80]”, for which the “Peptide exchange” value was ““++” (≥20% = ++)”.

For the substance “81 (FLFSQLQYL; listed as Homo sapiens) [compound 81]”, the “Peptide exchange” value is ““++” (≥20% = ++)”.

Turning to “82 (FLSSVTYNL; listed as Homo sapiens) [compound 82]”, the “Peptide exchange” value is ““+++” (≥50 = +++)”.

In the case of “83 (ILAPTVMMI; listed as Homo sapiens) [compound 83]”, the “Peptide exchange” value is ““+++” (≥50 = +++)”.

Take “84 (VTFGEKLLGV; listed as Homo sapiens) [compound 84]”: the “Peptide exchange” value is ““++” (≥20% = ++)”.

Take “85 (KMSELRVTL; listed as Homo sapiens) [compound 85]”: the “Peptide exchange” value was ““+++” (≥50 = +++)”.

For “86 (NLIGKIENV; listed as Homo sapiens) [compound 86]”, the “Peptide exchange” value is ““+++” (≥50 = +++)”.

For the substance “87 (ALPEAPAPLLPHIT; listed as Homo sapiens) [compound 87]”, the “Peptide exchange” value is on record as ““++” (≥20% = ++)”.

“88 (FLLVGDLMAV; listed as Homo sapiens) [compound 88]”: the “Peptide exchange” value is given as ““+++” (≥50 = +++)”.

With “89 (YILPTETIYV; listed as Homo sapiens) [compound 89]”, the “Peptide exchange” value is given as ““++++” (≥75% = ++++)”.

As for “90 (TLLQIIETV; listed as Homo sapiens) [compound 90]”, the “Peptide exchange” value was ““+++” (≥50 = +++)”.

Regarding “91 (IMQDFPAEIFL; listed as Homo sapiens) [compound 91]”, the “Peptide exchange” value is recorded as ““++++” (≥75% = ++++)”.

For “92 (YLIPFTGIVGL; listed as Homo sapiens) [compound 92]”, the “Peptide exchange” value is reported as ““++” (≥20% = ++)”.

Consider “93 (LLQAIKLYL; listed as Homo sapiens) [compound 93]”, for which the “Peptide exchange” value is recorded as ““++” (≥20% = ++)”.

As to “94 (YLIDIKTIAI; listed as Homo sapiens) [compound 94]”, the “Peptide exchange” value was ““++” (≥20% = ++)”.

In the case of “95 (SVIPQIQKV; listed as Homo sapiens) [compound 95]”, the “Peptide exchange” value was ““+++” (≥50 = +++)”.

As to “96 (YIFTDNPAAV; listed as Homo sapiens) [compound 96]”, the “Peptide exchange” value is listed as ““+++” (≥50 = +++)”.

Consider “97 (SLINGSFLV; listed as Homo sapiens) [compound 97]”, for which the “Peptide exchange” value was ““+++” (≥50 = +++)”.

“98 (LIIDQADIYL; listed as Homo sapiens) [compound 98]”: the “Peptide exchange” value is given as ““+++” (≥50 = +++)”.

Turning to “99 (ALVSKGLATV; listed as Homo sapiens) [compound 99]”, the “Peptide exchange” value is recorded as ““++” (≥20% = ++)”.

On to “100 (YLLSTNAQL; listed as Homo sapiens) [compound 100]”, for which the “Peptide exchange” value is recorded as ““++++” (≥75% = ++++)”.

In the case of “101 (ILVGGGALATV; listed as Homo sapiens) [compound 101]”, the “Peptide exchange” value was ““+++” (≥50 = +++)”.

In the case of “102 (YLFESEGLVL; listed as Homo sapiens) [compound 102]”, the “Peptide exchange” value was ““+++” (≥50 = +++)”.

Turning to “103 (TLAEEVVAL; listed as Homo sapiens) [compound 103]”, the “Peptide exchange” value is recorded as ““+++” (≥50 = +++)”.

As to “104 (STMEQNFLL; listed as Homo sapiens) [compound 104]”, the “Peptide exchange” value is listed as ““++++” (≥75% = ++++)”.

“106 (LLYDAVHIVSV; listed as Homo sapiens) [compound 106]”: the “Peptide exchange” value is ““+++” (≥50 = +++)”.

In the case of “107 (FLQPVDDTQHL; listed as Homo sapiens) [compound 107]”, the “Peptide exchange” value is listed as ““+++” (≥50 = +++)”.

For “108 (ALFPGVALLLA; listed as Homo sapiens) [compound 108]”, the “Peptide exchange” value is listed as ““++++” (≥75% = ++++)”.

Consider “109 (IILSILEQA; listed as Homo sapiens) [compound 109]”, for which the “Peptide exchange” value is listed as ““++++” (≥75% = ++++)”.

With “110 (FLSQVDFEL; listed as Homo sapiens) [compound 110]”, the “Peptide exchange” value is ““+++” (≥50 = +++)”.

For the substance “111 (YVWGFYPAEV; listed as Homo sapiens) [compound 111]”, the “Peptide exchange” value is ““+++” (≥50 = +++)”.

As to “113 (GLLPTPLFGV; listed as Homo sapiens) [compound 113]”, the “Peptide exchange” value is reported as ““+++” (≥50 = +++)”.

Consider “114 (SLVGEPILQNV; listed as Homo sapiens) [compound 114]”, for which the “Peptide exchange” value is recorded as ““++” (≥20% = ++)”.

Regarding “115 (AIAGAGILYGV; listed as Homo sapiens) [compound 115]”, the “Peptide exchange” value is reported as ““++” (≥20% = ++)”.

Regarding “116 (YHIDEEVGF; listed as Homo sapiens) [compound 116]”, the “Peptide exchange” value is listed as ““+” (≥10% = +)”.

Consider “117 (ILPDGEDFLAV; listed as Homo sapiens) [compound 117]”, for which the “Peptide exchange” value is ““+++” (≥50 = +++)”.

Take “118 (KLIDNNINV; listed as Homo sapiens) [compound 118]”: the “Peptide exchange” value is reported as ““+++” (≥50 = +++)”.
